In this assay the target is Xenopus Mad1 (Xenopus (endogenous in Xenopus egg extract)). The experiment in a line: co-IP.

This note sets out measurements from PMC2192030.

Xenopus Mad2 (natural protein) registered a percent of Mad2 removed by immunodepletion of Mad1 of 20 to 40%.
